In test [1] the target is T1, recombinant human KDR (human, UniProt P35968 20-764, limits assumed).
T1 construct: also called VEGFR2
As to the kind of experiment: inhibition of KDR binding to VEGF, ligand-receptor binding assay.

For test [2], the target named is T1, recombinant human KDR. As to the kind of experiment: ELISA: antibody pre-incubated with 5 µg/ml recombinant human KDR, then transferred to a VEGF-coated plate; KDR bound to VEGF detected (OD405); blocked ligand VEGF. How it is done:
(§1) An ELISA-based KDR-VEGF binding assay was developed and used to assess the potency of APX004 at blocking KDR binding to VEGF. A total of 2 μg/ml VEGF was coated on ELISA plates. APX004, the parental rabbit antibody R-36 or IgG1 isotype control antibody were pre-incubated with 5 μg/ml recombinant human KDR before being transferred to the VEGF-A coated ELISA plates. KDR bound to immobilized VEGF was detected by a mouse anti-KDR monoclonal antibody, followed by the addition of goat anti-mouse IgG conjugated with alkaline phosphatase (Fisher Scientific/Pierce Biotechnology, Rockford, Ill.). ELISA plates were developed with p-nitrophenyl phosphate substrate and absorbance at 405 nm was recorded. All experiments were performed in triplicate.
A general note: In an ELISA, binding on a coated surface is turned into a signal by an enzyme label.

The target in test [3] is T1, recombinant human KDR. As to the kind of experiment: competition ELISA: APX004 pre-incubated with 5 µg/ml recombinant human KDR, then on coated VEGF-A; bound KDR detected. The protocol:
as §1

A further test deals with T2, mouse KDR (mouse, UniProt P35918 20-762, limits assumed).
T2 construct: also called murine KDR
As to the kind of experiment: restated in the summary of the Examples.

Test [4] deals with T1, recombinant human KDR. As to the kind of experiment: method not stated.
Test [5] has as its target T3, rabbit Fc-fusion protein of human VEGFR3 (human; rabbit, UniProt P35916 25-775, limits assumed).
T3 construct: not shown: rabbit immunoglobulin Fc
T3 sequence (looked up): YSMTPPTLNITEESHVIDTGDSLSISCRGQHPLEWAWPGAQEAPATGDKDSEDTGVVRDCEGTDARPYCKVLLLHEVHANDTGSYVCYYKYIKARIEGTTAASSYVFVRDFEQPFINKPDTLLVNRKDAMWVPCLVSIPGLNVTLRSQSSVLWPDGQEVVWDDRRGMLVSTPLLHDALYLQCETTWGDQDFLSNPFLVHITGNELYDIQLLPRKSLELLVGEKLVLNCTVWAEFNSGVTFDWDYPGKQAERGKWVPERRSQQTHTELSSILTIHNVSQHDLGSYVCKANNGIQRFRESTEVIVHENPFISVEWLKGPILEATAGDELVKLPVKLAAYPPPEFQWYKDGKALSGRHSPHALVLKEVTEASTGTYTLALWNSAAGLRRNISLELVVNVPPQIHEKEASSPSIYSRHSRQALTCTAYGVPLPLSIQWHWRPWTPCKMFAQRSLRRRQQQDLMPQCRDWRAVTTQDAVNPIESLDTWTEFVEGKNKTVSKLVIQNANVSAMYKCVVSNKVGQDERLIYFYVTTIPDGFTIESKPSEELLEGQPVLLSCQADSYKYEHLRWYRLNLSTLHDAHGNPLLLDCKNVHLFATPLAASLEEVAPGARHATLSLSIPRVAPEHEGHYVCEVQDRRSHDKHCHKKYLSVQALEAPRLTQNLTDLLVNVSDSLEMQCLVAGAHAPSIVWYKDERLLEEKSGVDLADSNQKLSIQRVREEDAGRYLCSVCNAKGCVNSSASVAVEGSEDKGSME
As to the kind of experiment: direct ELISA: 1 µg/ml protein coated, 1 µg/ml APX004, goat anti-human HRP-conjugated IgG. How it is done:
(§2) Binding selectivity of APX004 was assessed by direct ELISA to VEGFR family proteins. A total of 1 μg/ml of rabbit Fc-fusion protein of human KDR, mouse KDR, human VEGFR1, human VEGFR3, human OX40L and human VEGF were coated on ELISA plates followed by incubation with 1 μg/ml of APX004. Bound APX004 was detected using goat anti-human HRP-conjugated IgG.

The target of test [6] is T4, human VEGF (coated in the selectivity ELISA) (human, UniProt P15692-4 27-191, limits assumed).
T4 construct: the sentence lists it last after 'rabbit Fc-fusion protein of'
Described as above. The protocol:
as §2

Test [7] addresses T5, rabbit Fc-fusion protein of human VEGFR1 (human; rabbit, UniProt P17948 27-758, limits assumed).
T5 construct: also called Flt-1; not shown: rabbit immunoglobulin Fc
The description is as above. The protocol:
as §2

The target of test [8] is T6, rabbit Fc-fusion protein of mouse KDR (mouse; rabbit, UniProt P35918 20-762, limits assumed).
T6 construct: not shown: rabbit immunoglobulin Fc
Described as above. The protocol: as §2

IC50, binding result and Kd data for ten molecules are collected here from patent US20140377282A1 (APEXIGEN, published 2014).

T1 sequence (P35968 20-764 limits assumed): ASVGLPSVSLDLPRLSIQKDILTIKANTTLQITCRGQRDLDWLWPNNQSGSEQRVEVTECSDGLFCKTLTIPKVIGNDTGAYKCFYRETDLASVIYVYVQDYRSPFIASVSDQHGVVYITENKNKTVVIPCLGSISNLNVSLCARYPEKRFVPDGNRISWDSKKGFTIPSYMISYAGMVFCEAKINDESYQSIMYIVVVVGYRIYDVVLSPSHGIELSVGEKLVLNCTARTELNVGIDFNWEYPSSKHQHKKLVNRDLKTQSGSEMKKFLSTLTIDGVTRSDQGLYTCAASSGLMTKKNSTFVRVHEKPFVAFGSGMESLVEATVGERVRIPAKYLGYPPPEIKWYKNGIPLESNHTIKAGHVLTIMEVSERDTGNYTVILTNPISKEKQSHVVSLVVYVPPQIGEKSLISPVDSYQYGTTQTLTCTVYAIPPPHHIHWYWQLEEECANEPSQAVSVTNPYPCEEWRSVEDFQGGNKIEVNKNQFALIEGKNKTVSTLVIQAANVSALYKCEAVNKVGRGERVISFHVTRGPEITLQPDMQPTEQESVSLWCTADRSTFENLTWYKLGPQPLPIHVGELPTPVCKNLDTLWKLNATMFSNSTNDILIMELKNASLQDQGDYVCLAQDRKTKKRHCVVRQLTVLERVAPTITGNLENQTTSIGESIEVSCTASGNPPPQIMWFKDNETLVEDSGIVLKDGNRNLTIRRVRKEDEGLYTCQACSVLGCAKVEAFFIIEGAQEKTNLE
T5 sequence (P17948 27-758 limits assumed): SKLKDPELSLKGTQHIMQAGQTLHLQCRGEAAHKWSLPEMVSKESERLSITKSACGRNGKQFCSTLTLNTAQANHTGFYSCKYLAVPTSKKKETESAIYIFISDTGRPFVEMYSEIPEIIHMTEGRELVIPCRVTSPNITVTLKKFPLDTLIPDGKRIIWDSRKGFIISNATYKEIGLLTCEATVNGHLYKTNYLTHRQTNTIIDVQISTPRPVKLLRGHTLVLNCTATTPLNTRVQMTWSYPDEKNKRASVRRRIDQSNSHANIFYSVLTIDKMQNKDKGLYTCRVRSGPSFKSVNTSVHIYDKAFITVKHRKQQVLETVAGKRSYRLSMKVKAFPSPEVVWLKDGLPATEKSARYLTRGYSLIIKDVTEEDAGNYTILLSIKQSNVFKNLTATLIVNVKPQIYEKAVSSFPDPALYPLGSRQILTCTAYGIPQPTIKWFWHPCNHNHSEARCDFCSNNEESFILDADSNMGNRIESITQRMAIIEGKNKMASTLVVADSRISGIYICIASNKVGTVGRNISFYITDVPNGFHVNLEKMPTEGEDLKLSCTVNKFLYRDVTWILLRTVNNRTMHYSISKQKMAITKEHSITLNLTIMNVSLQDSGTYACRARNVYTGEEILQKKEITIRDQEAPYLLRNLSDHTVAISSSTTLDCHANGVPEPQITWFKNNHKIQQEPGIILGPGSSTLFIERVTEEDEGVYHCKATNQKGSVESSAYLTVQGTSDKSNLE
T4 sequence (P15692 other isoform, or with tags, fused parts or gaps limits assumed): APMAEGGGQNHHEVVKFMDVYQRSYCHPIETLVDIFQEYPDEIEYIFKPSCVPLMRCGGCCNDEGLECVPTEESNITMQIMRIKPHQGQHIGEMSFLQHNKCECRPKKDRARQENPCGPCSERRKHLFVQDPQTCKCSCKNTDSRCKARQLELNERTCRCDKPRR
T6 sequence (P35918 20-762 limits assumed): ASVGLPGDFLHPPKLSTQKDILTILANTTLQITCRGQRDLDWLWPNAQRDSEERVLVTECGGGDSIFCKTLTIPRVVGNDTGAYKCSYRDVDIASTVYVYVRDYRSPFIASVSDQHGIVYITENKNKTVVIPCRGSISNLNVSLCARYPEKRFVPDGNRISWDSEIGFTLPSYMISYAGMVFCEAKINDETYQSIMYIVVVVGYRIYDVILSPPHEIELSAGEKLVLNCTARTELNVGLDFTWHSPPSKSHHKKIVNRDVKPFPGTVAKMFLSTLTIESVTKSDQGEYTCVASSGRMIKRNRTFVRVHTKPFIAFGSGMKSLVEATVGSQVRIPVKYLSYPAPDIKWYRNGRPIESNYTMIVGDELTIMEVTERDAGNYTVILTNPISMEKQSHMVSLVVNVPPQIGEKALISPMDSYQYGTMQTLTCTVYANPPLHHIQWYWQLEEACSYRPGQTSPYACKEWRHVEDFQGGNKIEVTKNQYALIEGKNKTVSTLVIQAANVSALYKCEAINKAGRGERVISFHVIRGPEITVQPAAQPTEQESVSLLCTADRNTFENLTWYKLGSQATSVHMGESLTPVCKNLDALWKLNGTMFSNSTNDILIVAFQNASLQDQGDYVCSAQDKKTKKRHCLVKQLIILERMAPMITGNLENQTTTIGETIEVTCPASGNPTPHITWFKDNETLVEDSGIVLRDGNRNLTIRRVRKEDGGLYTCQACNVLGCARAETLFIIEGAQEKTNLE
T2 sequence (P35918 20-762 limits assumed): as above

B1: rabbit anti-KDR antibody clone 27 (antibody, V domains shown)
VH: QSVEESGGRLVTPGTPLTLTCTASGFALNDFAMSWVRQAPGKGLEWIGMIASSGNTFYASWAKGRFTISKTSTTVDLKFTSPTTEDTATYFCARVLWPGYIAYAYHNIWGPGTLVTVSS
VL: DPVLTQTPASVSAVVGGTVTINCQTSEDIASNLAWYQQKSGQRPKLLIYEASKLASGVPSRFKGSGSGTEYTLTISDLECADAATYYCQYTYYGSSYLGAFGGGTEVVVK
notes: rabbit monoclonal antibody, recombinantly expressed and purified for characterization
In general, IC50 refers to the concentration needed to halve the response being measured. In the case of B1, the IC50 with recombinant human KDR [1] was found to be 5.95 nM.

B2: rabbit anti-KDR antibody clone 43 (antibody, V domains shown)
VH: QSVEESGGRLVTPGTPLTLTCTVSGFSLSSYAMSWFRQAPGKGLEWIGLIRSSGATYYASWAKGRFTISKASTTVDLKFTSPTTEDTATYFCARVLWPGDIAYAYHNIWGPGTLVTVSS
VL: DLVMTQTPSPVSAAVGGTVTINCQASEEIGGNLAWYQQKPGQPPKLLIYSASTLTSGVPSRFKGSGSGTEYTLTISDLECADAATYYCQYTYYGFSYVGPFGGGTEVVVK
notes: as for B1
Take B2: the IC50 with recombinant human KDR [1] was determined as 7.54 nM.

B3: rabbit anti-KDR antibody clone 83 (antibody, V domains shown)
VH: QSLEESGGRLVTPGTPLTLTCTVSGIDLSAYAMSWVRQAPGKGLEWIGLIRSSGATYYASWAKGRFTISKTSTTVDLKMTSPTTEDTATYFCARVLWPGEIAYAYHNIWGPGTLVTVSS
VL: DVVMTQTPASVSEPVGGTVTINCQASEEIGGNLAWYQQKPGQPPKLLIYSASSLTSGVPSRFKGSESGTEYTLTISDLECADAATYYCQYSYYGFNYVGPFGGGTEVVVK
notes: as for B1
On to B3, for which the 50% inhibitory concentration (IC50) with recombinant human KDR [1] is 9.77 nM.

B4: rabbit anti-KDR antibody clone 81 (antibody, V domains shown)
VH: QSVEESGGRLVTPGTPLTLTCTVSGFSLSTYAMSWFRQAPGKGLEWIGLIRSSGATYYASWAKGRFTISKASTTVDLKFTSPTTEDTATYFCARVLWPGDIAYAYHNIWGPGTLVTVSS
VL: DLVMTQTPSPVSAAVGGTVTINCQASEEIGGNLAWYQQKPGQPPKLLIYSASTLTSGVPSRFKGSGSGTEYTLTINDLECADAATYYCQYPYYGFSYVGPFGGGTEVVVK
notes: as for B1
Take B4: in the test with recombinant human KDR [1], the IC50 was determined as 4.56 nM.

B5: rabbit anti-KDR antibody clone 15 (antibody, V domains shown)
VH: QSLEESGGDLVKPGTSLTLTCTASGFSFSARHFMYWVRQAPGKGLEWIGCIDIGSGSTYYTSWAKDRFTISKPSSTTVTLQMTSLTAADTATYFCARSSGYPYYFTLWGPGTLVTVSS
VL: AVVLTQTTSSVSADVGGTVTIKCQASENIYSLLAWYQQKPGQPPKLLIYSASDLASGVPSRFSGSGFGTEFTLTISDLECADAATYHCQSYYYSGSSADTGAFGGGTEVVVK
notes: as for B1
For B5, the half-maximal inhibitory concentration (IC50) with recombinant human KDR [1] is 17.5 nM.

B6: rabbit anti-KDR antibody clone 92 (antibody, V domains shown)
VH: QSVEESGGRLVTPGTPLTLTCTVSGFSLSSNAMSWVRQAPGEGLEWIGTISSSGSTYYATWVKGRFTISKTSTTVDLKMTSLTAADTATYFCARGDDDVSDYFYYFPIWGPGTLVTVSS
VL: AVVLTQTASPVSGAVGGTVTIKCQASQNIYNNLAWYRQKPGQPPKLLIYAASKLASGVPSRFSGSRSGTQFTLSISDLECADAATYYCQSYYFDSSSTDAAFGGGTEVVVK
notes: as for B1
As for B6, the IC50 with recombinant human KDR [1] was found to be 32.9 nM.

B7: rabbit anti-KDR antibody clone 24 (antibody, V domains shown)
VH: QSVEESGGRLVTPGTPLTLTCTVSGFSLSSNAMSWVRQAPGEGLEWIGTISSSGSTYYATWVKGRFTISKTSTTVDLKMTSLTAADTATYFCARGDDDVSDYFYYFPIWGPGTLVTVSS
VL: AVVLTQTASPVSGAVGGTVTIKCQASQNIYNNLAWYRQKPGQPPKLLIYAASKLASGVPSRFSGSRSGTQFTLSISDLECADAATYYCQSYYFDSSSTDAAFGGGTEVVVK
notes: as for B1
As for B7, in the test with recombinant human KDR [1], the IC50 stood at 19.8 nM.

B8: rabbit anti-KDR antibody clone 23 (antibody, V domains shown)
VH: QSVEESGGRLVTPGTPLTLTCTVSGFSLSSNAMSWVRQAPGEGLEWIGTISSSGSTYYATWVKGRFTISKTSTTVDLKMTSLTAADTATYFCARGDDDVSDYFYYFPIWGPGTLVTVSS
VL: AVVLTQTASPVSGAVGGTVTIKCQASQNIYNNLAWYRQKPGQPPKLLIYAASKLASGVPSRFSGSRSGTQFTLSISDLECADAATYYCQSYYFDSSSTDAAFGGGTEVVVK
notes: as for B1
On to B8, for which, in the test with recombinant human KDR [1], the half-maximal inhibitory concentration (IC50) is 21.4 nM.

B9: clone 36 rabbit anti-KDR antibody (antibody, V domains shown)
VH: QSVEESGGRLVTPGTPLTLTCTVSGIDLNNYAMSWVRQAPGKGLEWIGIIGSSGSIFYASWAKGRITISKTSTTVDLKFTSLTTEDTATYFCARVLWAGSVAYAYHNIWGPGTLVTVSS
VL: DPVMTQTPASVSEPVGGTVTINCQASEELGSNLAWYQQKPGQPPKLLIYSASTLASGVPSRFKGSGSGTEYTLTISDLECADAATYYCQYTYFGSSYLGAFGGGTEVVVK
notes: rabbit IgG, recombinantly expressed in 293-6E cells; also called R-36; parental rabbit monoclonal antibody 36
Take B9: the half-inhibitory concentration (IC50) was 3.1 nM in the test with recombinant human KDR [2] and 6.25 nM in the test with recombinant human KDR [1].

B10: APX004 (humanized clone 36 anti-KDR antibody) (antibody, human IgG1, kappa, V domains shown)
VH: EVQLVESGGGLVQPGGSLRLSCAASGFDLSSYAMSWVRQAPGKGLEWVGIIGSGGSTYYASWAKGRFTISKDSSKNTVYLQMNSLRAEDTAVYFCARVLWAGSVAYAYHNIWGPGTLVTVSS
VL: DIQMTQSPSSLSASVGDRVTINCQASEELGSNLAWYQQKPGKPPKLLIYSASTLASGVPSRFSGSGSGTDYTLTISSLQPEDFATYYCQYTYFGSSYLGAFGGGTKVEIKR
notes: also called humanized 36
For orientation: Kd means the equilibrium constant for the complex coming apart. On to B10, for which the IC50 in the test with recombinant human KDR [3] was found to be 2.6 nM. Further, the binding result with mouse KDR is “binds”; in [5], “no binding (tested: 1 µg/ml)”; in [6], “no binding (tested: 1 µg/ml)”; in [7], “no binding (tested: 1 µg/ml)”; in test [8], “binds”. For the same molecule, the Kd in the test with recombinant human KDR [4] amounted to 0.053 nM.
